System: MS2 coat protein
Test: apparent KD of MS2 coat protein; designed switch direction (-1 OFF switch, 1 ON switch): -1; higher = weaker reporter binding
How it was run: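 For each design, the apparent KD is the median over clusters of curves fitted to normalised cluster fluorescence. Clusters held RNA switches with common flanks, transcribed on Illumina chips by stalled E. coli RNA polymerase. These were titrated with SNAP-549-labelled MS2 coat protein, doubling from 0.7 or 1.5 nM to 3 µM, without input, with 200 uM small-molecule ligand, or with an oligonucleotide input.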

[1] = Eterna round: R95, input ligand: FMN 200 uM
[2] = Eterna round: R95, input ligand: microRNA oligo, concentration not stated
[3] = Eterna round: R95, input ligand: none
[4] = input ligand: microRNA oligo, concentration not stated

| Sequence | apparent KD of MS2 coat protein [1] | apparent KD of MS2 coat protein [2] | apparent KD of MS2 coat protein [3] | apparent KD of MS2 coat protein (input ligand: FMN 200 uM) | apparent KD of MS2 coat protein [4] | apparent KD of MS2 coat protein (input ligand: none) |
| --- | --- | --- | --- | --- | --- | --- |
| CUUUUAAAUGUGAGGAUAUACUGUUAUUAAAGUUAGUAGAAGGUACAUGAGGAUCACCCAUGUUAAUUACUCUA [JR_BME4_Sub048] (puzzle: Brourd's mod of Exclusion 4) | 15.1 nM | 12.5 nM | 12.6 nM |  |  |  |
| AGAUGUAGAUACCGAUCCUACAUGAGGAUCACCCAUGUAGCUAGACGUGCGCGCGGCGCUCGUCAGACUACCAGUAG [salish99_TOv1_r3_093] (Eterna round: R96, puzzle: Sensor v3, turn-off variant 1) |  |  |  | 499 nM | 250 nM | 364 nM |
| AGAUAGUGCGGAGGAUAUCUUAAUAGAAAGAAUAGAGAAGGCUGACAUGAGGAUCACCCAUGUGAGGUCUUGAGACUACAUGGU [Prohibition 35 - Jieux - Exclusion NG 1] (Eterna round: R96, puzzle: Exclusion NG 1) |  |  |  | 66.3 nM | 12.9 nM | 18.2 nM |
| AGAGUGCUGCGAGGAUAUACAUGAGGAUCACCCAUGUAUUAGUGUGAGGCAAAGCCUCACACAAUGUAGAAGGCGCAGUACUCA [Mat - Exclusion NG 2 - Mod of JL - D9] (Eterna round: R96, puzzle: Exclusion NG 2) |  |  |  | 8.83 nM | 12.2 nM | 18.4 nM |
| AUCGUGCAGCUUUGCUGUACGAGUACAUGAGGAUCACCCAUGUAGGAUAUGGUACGCUUUGCGUGCUAGAAGGAUAUGAGAUUU [JL ENG3 1.50] (Eterna round: R96, puzzle: Exclusion NG 3) |  |  |  | 41.7 nM | 24.3 nM | 38.6 nM |
| CUUUUGUGAGGAUAUCAGUAGUAAUUAAAUAAAAUUACUACUGAGAAGGCACAUGAGGAUCACCCAUGUUCCUC [salish99_ex3_r3_077] (puzzle: Exclusion 4) |  | 39.5 nM |  |  |  |  |
| UUGUUGUAUGUAGGAUAUGCAUAUUAUUAUUAUGCAGAAGGACAUGAGGAUCACCCAUGUAUAUUAUUAUUAUAUAUUAUAUAU [Title] (Eterna round: R96, puzzle: Exclusion NG 1) |  |  |  |  | 23.5 nM |  |
| ACAAUUAUGACAGGAUAUAGUUUUUGUUGGUCACUAGAAGGGUCUAUGCACAUGAGGAUCACCCAUGUUCUUUUUAUUUGCGAU [JR_ExcNG1_Sub017] (Eterna round: R96, puzzle: Exclusion NG 1) |  |  |  | 29.9 nM | 27.1 nM | 39.9 nM |
| AACCCUCGUGUUAGGAUAUCCAGCGUCCGGGCGAGGGAGAAGGGACAUGAGGAUCACCCAUGUUUCGAUGGACA [Xeinesed] (Eterna round: R97, puzzle: Brourd's mod of Exclusion 4) |  |  |  | 19.5 nM |  | 19 nM |
| GAGGAACAUGAGGAUCACCCAUGUAAGGAUAUGCGAGACUAAAGCGCGCAGGCUAAGAGCAGAAGGUGCAAGGA [Excls1-IIa] (puzzle: Exclusion 1) | 36 nM | 28.7 nM | 32.8 nM |  |  |  |
| CGGUCCCAUGUGAGGAUAUCGGAGCGAAAAUACUGCGAGAAGGUACAUGAGGAUCACCCAUGUCUCCUAUUGCC [Entiedxebe] (puzzle: Brourd's mod of Exclusion 4) |  | 15.2 nM |  |  |  |  |
| AAAAGAAAGGGAGGAUAUCUGACGGGAUACCAAAGAGAAGGCCCAGGCACAUGAGGAUCACCCAUGUUCGUGCGCCUACUUAAC [Enveri] (Eterna round: R96, puzzle: Exclusion NG 1) |  |  |  | 28.3 nM | 9.73 nM | 14.4 nM |
| GCAUGGCGAGGAUAUACAUGAGGAUCACCCAUGUGAGAAGAAUAAGUGAGGAAGAAAAGUAGAAGGCGCUGUGG [Mat - Exclusion 3 - Mod of Salish D63] (puzzle: Exclusion 3) | 128 nM | 51.5 nM | 85 nM |  |  |  |
| ACCUCACAUGAGGAUCACCCAUGUCAGGAUAUGUACCUGGUCUAGUCAAAGACCAGAAGCAGAAGGGACUGCGG [Ria] (puzzle: Exclusion 1) | 29.7 nM | 87.8 nM | 106 nM |  |  |  |
| CGUCUGUAAGGAUAUGGUUGCAUCAACAUGAGGAUCACCCAUGUAACGUGGGACUAGUGAUUAGAAGGUACGAACG [EX5 #60] (Eterna round: R97, puzzle: Exclusion 5) |  |  |  | 93.8 nM |  | 118 nM |
| GUGUUGCGAGGAUAUAUAAGGGUAUGUUCUUAGGAUAUGGAACAUGAGGAUCACCCAUGUAGAAGGUGCAUAUC [JR_Ex2_Sub047] (Eterna round: R97, puzzle: Exclusion 2) |  |  |  | 67.8 nM |  | 33.9 nM |
| CUCAUGCCUGAGGAUAUGCUGUACAAAAGUACUGCAGAAGGUAGAACAUGAGGAUCACCCAUGUGGCGAAAGCC [Omei Ex G3] (Eterna round: R97, puzzle: Exclusion 6) |  |  |  | 171 nM |  | 45.8 nM |

| Sequence | apparent KD of MS2 coat protein [1] | apparent KD of MS2 coat protein [2] | apparent KD of MS2 coat protein [3] | apparent KD of MS2 coat protein (input ligand: FMN 200 uM) | apparent KD of MS2 coat protein [4] | apparent KD of MS2 coat protein (input ligand: none) |
| --- | --- | --- | --- | --- | --- | --- |
| AAUGGGCAAGCAUGAUCCCACAUGAGGAUCACCCAUGUGUUCGUCUUAUAGGCUGCUGAGGCUUUUGCCUCGGUGGC [LRO Sensor-off var1-03 loose mod of D91 from Mat747] (Eterna round: R97, puzzle: Sensor, turn-off variant 1) |  |  |  | 850 nM |  | 1370 nM |
| UCAUUGGUAGGAUAUACAUGAGGAUCACCCAUGUGUCCGGAGCAGUAUGCUUGAAAACGUAGAAGGACCUAGGA [Eternabot (L1) Solution 15] (Eterna round: R97, puzzle: Exclusion 3) |  |  |  | 45.3 nM |  | 40.4 nM |
| UGUGUGUGAGGAUAUACAAUGGGCCCGGGAAACCGGGCCCUACAUGAGGAUCACCCAUGUAGAAGGCGCGCGCG [-39.6, -37.5 kcal A 24%, 0,6bis] (Eterna round: R97, puzzle: Exclusion 2) |  |  |  | 47.2 nM |  | 73.6 nM |
| UUAAUUUAAGGGAUAGAUCAUUACAUGAGGAUCACCCAUGUUGAGGAUAUCAGCUCGUUUAGAGCUGAGAAGGCAACAAUAGGG [ExNG3/14-A2] (Eterna round: R96, puzzle: Exclusion NG 3) |  |  |  | 58.9 nM | 60 nM | 163 nM |
| UUAUACGUUGAGGAUAUGCGACUUUUUUUAGUUGUAGAAGGCGAUACAUGAGGAUCACCCAUGUUUAUGGGCAU [LRO-Ex6-11] (puzzle: Exclusion 6) |  | 137 nM |  |  |  |  |
| CUGCUCCGUGUAGGAUAUCCGGGCAACCAAUCCGGAGAAGGACAUGAGGAUCACCCAUGUAUGUUAUUAUCACGUGAAGCGUCC [Design 25] (Eterna round: R96, puzzle: Exclusion NG 1) |  |  |  |  | 15.6 nM |  |
| UUUUUAUAUGAAGGAUAUACUUAACAUGAGGAUCACCCAUGUGGUGUUGUGAGUGAGUGAGUUUAGUAGAAGGUCAAGUAUUGU [JMF's solution 39] (Eterna round: R96, puzzle: Exclusion NG 2) |  |  |  | 891 nM | 347 nM | 441 nM |
| GAGCUAUGAGGAUAUGCAUAUAUACGGAUUCGUGUAGUACUACAUGAGGAUCACCCAUGUAGAAGGCGUGGCAG [Mat - Exclusion 2 - Mod of JL - D77] (puzzle: Exclusion 2) |  | 12.1 nM |  |  |  |  |
| CCGUGGCAAGGAUAUACGUAGGAGAGGAAGGCAAGAGGAGGACAUGAGGAUCACCCAUGUAGAAGGUGCAGAUC [JR_Exclu2_Sub029] (puzzle: Exclusion 2) | 62.3 nM | 77.4 nM | 94.5 nM |  |  |  |
| UCGCAGGGAGGAUAUACACACAGGUGACGCAGCCCAAAAGAACAUGAGGAUCACCCAUGUAGAAGGCUCAAUAU [Eternabot (Original) Solution 2] (Eterna round: R97, puzzle: Exclusion 2) |  |  |  | 51.5 nM |  | 31.2 nM |
| UCGGCGCGAGGAUAUGCGGUUCCUCCCUAGGGCCGGAGCGUACAUGAGGAUCACCCAUGUAGAAGGCGCGCCGC [Apr-15 SS2-35] (puzzle: Exclusion 2) |  | 11.2 nM |  |  |  |  |
| AAGAAACAUGAGGAUCACCCAUGUGAGGAUAUGUAAAAGAAAAUAAAAUAAAUAAUAAACAGAAGGCACAAAGG [Mat - Mod of Hog D18] (puzzle: Exclusion 1) | 58.2 nM | 33.6 nM | 40.9 nM |  |  |  |
| UACAGUCAUCCUUGUUGUUACAUGAGGAUCACCCAUGUUAGUAUAGUUAAGUUAUGUGAGUUUGUUGUUCGUUUUAU [JR_STOV1_v2_Sub077] (Eterna round: R97, puzzle: Sensor, turn-off variant 1) |  |  |  | 149 nM |  | 169 nM |
| UAUUAUAAUGUAGGAUAUCUGCACGAUUAGUGCAGAGAAGGACAUGAGGAUCACCCAUGUAUAGUAGCUUCGGCUACAUUAUUU [ENG1-B1] (Eterna round: R96, puzzle: Exclusion NG 1) |  |  |  | 114 nM | 60.7 nM | 77.5 nM |
| CACCGUUACACAGGAUAUCUUACAUGAGGAUCACCCAUGUAAUAAAUGAGAAUUUCGAAUGUAUUAGAGAAGGGUGGAAUCGGC [Ostracism 67 - Jieux - Exclusion NG 2] (Eterna round: R96, puzzle: Exclusion NG 2) |  |  |  |  | 29.8 nM |  |
| GCGUAUGAGCAGGAUAUCCGACGGGAAUCCAAAGGAGAAGGGCUCACAUGAGGAUCACCCAUGUGGUCCUAAAC [Vequat] (puzzle: Exclusion 6) |  | 19.4 nM |  |  |  |  |
| CUUAGACAUGAGGAUCACCCAUGUGAGGAUAUGAAAUUAAUUAAUUAUUAAUUAUGAAUCAGAAGGCACAUAUG [Mat - Mod of Hyphema D37] (puzzle: Exclusion 1) | 121 nM | 47.9 nM | 50.9 nM |  |  |  |

Reference: the supplement of paper PMC9170038
